{
  "source": "patent US20250197889A1",
  "biological_target": "humanized Nme2Cas9 expressed in HEK293T cells from a plasmid (Neisseria meningitidis strain De11444 (also printed De10444))",
  "test": "cell-based or functional assay",
  "data": [
    {"substance": "AcrIIC4Hpa", "values": [
      {"measurement": "fold decrease in genome editing in HEK293T cells at various ratios of Acr to Cas9 plasmid", "result": 4, "unit": "fold"}
    ]}
  ]
}
